In patent US20230279368A1 (NORTH CAROLINA STATE UNIVERSITY, published 2023):

How the values were obtained:
[1] = target: the molecule itself; assay: size exclusion chromatography, self-association (homodimer); data not shown
[2] = target: the molecule itself; assay: size exclusion chromatography and SAXS, self-association (homodimer)
Protocol: Size Exclusion Chromatography. To determine molecular mass, NTA purified samples were subjected to size exclusion chromatography (Superdex 200 10/300 GL, GE Healthcare) equilibrated with SEC buffer (100 mM Tris pH7.5, 200 mM sodium chloride). The protein sample equilibrated in SEC buffer was applied to the column. The mass of BHT₍₂₃₋₅₉₄₎-HIS was calculated based on the standards in the high molecular weight gel calibration kit (Cytiva Life Sciences*).
Small angle X-ray scattering: Data Collection and Analysis. rBHT₍₂₃₋₅₉₄₎-HIS samples at 1 mg/ml and 4 mg/ml 5 mM in sodium phosphate buffer at pH 5 were measured on a Rigaku Bio-SAXS 2000. The instrument uses Cu Kα radiation (λ=1.54 Å) and was collimated to provide a sufficient Q-range of 0.01-0.67 Å⁻¹. Measurements were performed at ambient temperature. Samples were measured for a total of 40 min in 5 min scans. Data were corrected for transmission and sample background. […]
The dimer conformation was further validated in solution by small X-ray scattering (SAXS) (FIG. 7A). […] Molecular mass were calculated using the method described by Rambo and Tamer. The molecular mass determined from SAXS (˜169 KDa) confirmed that BHT forms a dimer in solution Table 3. […] The Rg and Dₘₐₓ of the 6M4F crystallographic dimer (molecule A and molecule C) calculated using Crysol are 34 Å and 110 Å, respectively. […]

B1: rBHT(54-594)-HIS (enzyme)
chain: TGTAELDALWNLVEAQYPVQTAAVTTLVTVPDDYKFEADPPSYALAGYETSEIAGLKFPKGFKFGVAGAAIQVEGAAKAEGRGPSTWDYLCHHYASTQCNNYDPDITTNHYYLYPLDFARLQHLGINTYSFSISWTRIYPLGAGYVNEAGLAHYDAVIHSAKKYGLEPVGTVFHWDTPLSLMLKYGAWQDTGDQIVKDFVTYATTVFKRYGNEVKTWFTFNEPRVFCSQNSGLPYNLTYPEGINSTSAVFRCTYNVLKAHGHAVKVYRDLVASGTIAAGEIGFKSDDNYPIPARPGNADDEESAKRHEAFRIGIFAQPVYGNGDYPDVVKETVGDMLPALTDEDKGYIKGSGDIFAIDGYRTDISHAALNGIANCIRNQSDPNWPVCEEGSDPFAHVYPSGFAIGQSADPLSSWLVNSAPFIRDQLKFLTQTYPAKGGIYFSEFGWAEDAEYDRQLLYQITWDGLRTQYLTDYLSQLLLAVHKDGINLRGALTWSFVDNWEWGLGMQQKFGFQFVNQSDPDLTRTFKLSAHAYAQFGRNHLHHHHHH
notes: the entry describes its self-association into a dimer
binding result [1]: binds

B2: rBHT(32-594)-HIS (enzyme)
chain: SLTSNYETPSPTAIPLEPTPTATGTAELDALWNLVEAQYPVQTAAVTTLVTVPDDYKFEADPPSYALAGYETSEIAGLKFPKGFKFGVAGAAIQVEGAAKAEGRGPSTWDYLCHHYASTQCNNYDPDITTNHYYLYPLDFARLQHLGINTYSFSISWTRIYPLGAGYVNEAGLAHYDAVIHSAKKYGLEPVGTVFHWDTPLSLMLKYGAWQDTGDQIVKDFVTYATTVFKRYGNEVKTWFTFNEPRVFCSQNSGLPYNLTYPEGINSTSAVFRCTYNVLKAHGHAVKVYRDLVASGTIAAGEIGFKSDDNYPIPARPGNADDEESAKRHEAFRIGIFAQPVYGNGDYPDVVKETVGDMLPALTDEDKGYIKGSGDIFAIDGYRTDISHAALNGIANCIRNQSDPNWPVCEEGSDPFAHVYPSGFAIGQSADPLSSWLVNSAPFIRDQLKFLTQTYPAKGGIYFSEFGWAEDAEYDRQLLYQITWDGLRTQYLTDYLSQLLLAVHKDGINLRGALTWSFVDNWEWGLGMQQKFGFQFVNQSDPDLTRTFKLSAHAYAQFGRNHLHHHHHH
notes: as for B1
binding result [1]: binds

B3: rBHT(57-594)-HIS (enzyme)
chain: AELDALWNLVEAQYPVQTAAVTTLVTVPDDYKFEADPPSYALAGYETSEIAGLKFPKGFKFGVAGAAIQVEGAAKAEGRGPSTWDYLCHHYASTQCNNYDPDITTNHYYLYPLDFARLQHLGINTYSFSISWTRIYPLGAGYVNEAGLAHYDAVIHSAKKYGLEPVGTVFHWDTPLSLMLKYGAWQDTGDQIVKDFVTYATTVFKRYGNEVKTWFTFNEPRVFCSQNSGLPYNLTYPEGINSTSAVFRCTYNVLKAHGHAVKVYRDLVASGTIAAGEIGFKSDDNYPIPARPGNADDEESAKRHEAFRIGIFAQPVYGNGDYPDVVKETVGDMLPALTDEDKGYIKGSGDIFAIDGYRTDISHAALNGIANCIRNQSDPNWPVCEEGSDPFAHVYPSGFAIGQSADPLSSWLVNSAPFIRDQLKFLTQTYPAKGGIYFSEFGWAEDAEYDRQLLYQITWDGLRTQYLTDYLSQLLLAVHKDGINLRGALTWSFVDNWEWGLGMQQKFGFQFVNQSDPDLTRTFKLSAHAYAQFGRNHLHHHHHH
notes: as for B1
binding result [1]: binds

B4: rBHT(23-594)-HIS (enzyme)
chain: VTYPGAIPLSLTSNYETPSPTAIPLEPTPTATGTAELDALWNLVEAQYPVQTAAVTTLVTVPDDYKFEADPPSYALAGYETSEIAGLKFPKGFKFGVAGAAIQVEGAAKAEGRGPSTWDYLCHHYASTQCNNYDPDITTNHYYLYPLDFARLQHLGINTYSFSISWTRIYPLGAGYVNEAGLAHYDAVIHSAKKYGLEPVGTVFHWDTPLSLMLKYGAWQDTGDQIVKDFVTYATTVFKRYGNEVKTWFTFNEPRVFCSQNSGLPYNLTYPEGINSTSAVFRCTYNVLKAHGHAVKVYRDLVASGTIAAGEIGFKSDDNYPIPARPGNADDEESAKRHEAFRIGIFAQPVYGNGDYPDVVKETVGDMLPALTDEDKGYIKGSGDIFAIDGYRTDISHAALNGIANCIRNQSDPNWPVCEEGSDPFAHVYPSGFAIGQSADPLSSWLVNSAPFIRDQLKFLTQTYPAKGGIYFSEFGWAEDAEYDRQLLYQITWDGLRTQYLTDYLSQLLLAVHKDGINLRGALTWSFVDNWEWGLGMQQKFGFQFVNQSDPDLTRTFKLSAHAYAQFGRNHLHHHHHH
modifications: N-glycosylated at N289, N297, N431 and N569 (numbering of full-length BHT, SEQ ID NO: 1), expressed in K. pastoris
notes: the entries describe its self-association into a homodimer
binding result [2]: binds
